According to PMC7668044, “Insights into bacterial cell division from a structure of EnvC bound to the FtsX periplasmic domain” (Proceedings of the National Academy of Sciences of the …, 2020):

Molecular target: T1, mature EnvC (murein hydrolase activator), non-tagged, co-expressed for crystallisation (E. coli, UniProt P37690 35-419)
T1 construct: EnvC, E. coli, mature protein
T1 sequence (looked up): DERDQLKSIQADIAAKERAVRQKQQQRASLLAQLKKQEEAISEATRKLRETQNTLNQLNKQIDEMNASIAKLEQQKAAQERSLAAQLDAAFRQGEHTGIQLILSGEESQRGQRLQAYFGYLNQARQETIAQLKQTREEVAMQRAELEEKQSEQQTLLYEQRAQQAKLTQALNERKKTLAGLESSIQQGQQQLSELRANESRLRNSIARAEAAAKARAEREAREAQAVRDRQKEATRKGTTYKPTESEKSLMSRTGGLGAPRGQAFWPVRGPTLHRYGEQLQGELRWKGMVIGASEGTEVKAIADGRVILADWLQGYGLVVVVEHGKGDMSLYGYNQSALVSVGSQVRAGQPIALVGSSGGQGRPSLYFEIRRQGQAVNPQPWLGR
Assay: crystal structure; X-ray, 2.1 Å, space group P2(1)2(1)2(1); His-tagged FtsX periplasmic domain and non-tagged EnvC coexpressed and copurified by Ni-IMAC; molecular replacement
Settings: both partners purified

B1: FtsX periplasmic domain, histidine-tagged, co-expressed for crystallisation (domain or fragment, E. coli)
chain: QITVYLQKTLDDDAAAGVVAQLQAEQGVEKVNYLSREDALGEFRNWSGFGGALDMLEENPLPAVAVVIPKLDFQGTESLNTLRDRITQINGIDEVRMDDS
notes: FtsX periplasmic domain (between the first and second transmembrane helix), E. coli; The two-hybrid construct of the same domain is residues 110 to 209; also called FtsX I; FtsX II; source: E. coli C43(DE3), coexpressed with non-tagged EnvC from a pETDuet1-based vector, copurified by Ni-IMAC
- stoichiometry N: 2 FtsX periplasmic domains per EnvC
